Laboratory results as given in the RNAGym collection of RNA variant scans (doi:10.7554/elife.80360).

B1: Hairpin Ribozyme (parent)
chain: GUCCUCUUUCACGUGCGCGUGAAAGAGAGAAGUGAACCAGAGAAACACACGUUGUGGUAUAUUACCUGGUA

Variants of: B1
Test: self-cleavage, relative activity (ratio to wild type); higher = more cleavage; co-transcriptional

Q: Which self-cleavage does the source give for G1A U55C here?
A: 0.243

Q: For G1A U58A, which self-cleavage is on record?
A: 0.186

Q: Which self-cleavage does the source give for G1A U58G here?
A: 0.256

Q: With G1A U60A as the variant, how does the self-cleavage read?
A: 0.188

Q: For G1A U62A, which self-cleavage is on record?
A: 0.192

Q: For G1A U70A, which self-cleavage is on record?
A: 0.198

Q: With G1A U70C as the variant, how does the self-cleavage read?
A: 0.154

Q: Which self-cleavage does the source give for G1C A11C here?
A: 0.0386

Q: With G1C A11G as the variant, how does the self-cleavage read?
A: 0.194

Q: With G1C A22U as the variant, how does the self-cleavage read?
A: 0.103

Q: With G1C A23G as the variant, how does the self-cleavage read?
A: 0.132

Q: For G1C A24C, which self-cleavage is on record?
A: 0.32

Q: Which self-cleavage does the source give for G1C A26U here?
A: 0.18

Q: For G1C A28U, which self-cleavage is on record?
A: 0.247

Q: Which self-cleavage does the source give for G1C A30C here?
A: 0.207

Q: Which self-cleavage does the source give for G1C A31G here?
A: 0.187

Q: For G1C A31U, which self-cleavage is on record?
A: 0.163

Q: With G1C A35U as the variant, how does the self-cleavage read?
A: 0.254

Q: For G1C A36U, which self-cleavage is on record?
A: 0.338

Q: For G1C A43G, which self-cleavage is on record?
A: 0.113

Q: With G1C A44G as the variant, how does the self-cleavage read?
A: 0.0352

Q: With G1C A59C as the variant, how does the self-cleavage read?
A: 0.113

Q: With G1C A61C as the variant, how does the self-cleavage read?
A: 0.249

Q: For G1C A61G, which self-cleavage is on record?
A: 0.202

Q: Which self-cleavage does the source give for G1C A61U here?
A: 0.126

Q: With G1C A64G as the variant, how does the self-cleavage read?
A: 0.143

Q: With G1C A64U as the variant, how does the self-cleavage read?
A: 0.107

Q: Which self-cleavage does the source give for G1C A71C here?
A: 0.328

Q: For G1C A71U, which self-cleavage is on record?
A: 0.153

Q: For G1C C3U, which self-cleavage is on record?
A: 0.18

Q: For G1C C4G, which self-cleavage is on record?
A: 0.301

Q: Which self-cleavage does the source give for G1C C6A here?
A: 0.245

Q: With G1C C10A as the variant, how does the self-cleavage read?
A: 0.102

Q: With G1C C12A as the variant, how does the self-cleavage read?
A: 0.215

Q: With G1C C12G as the variant, how does the self-cleavage read?
A: 0.188

Q: With G1C C12U as the variant, how does the self-cleavage read?
A: 0.213

Q: With G1C C16U as the variant, how does the self-cleavage read?
A: 0.198

Q: With G1C C37A as the variant, how does the self-cleavage read?
A: 0.0534

Q: Which self-cleavage does the source give for G1C C37G here?
A: 0.0832

Q: For G1C C48A, which self-cleavage is on record?
A: 0.129

Q: For G1C C50G, which self-cleavage is on record?
A: 0.171

Q: With G1C C65U as the variant, how does the self-cleavage read?
A: 0.188

Q: For G1C C66A, which self-cleavage is on record?
A: 0.351

Q: For G1C C66U, which self-cleavage is on record?
A: 0.12

Q: With G1C G17U as the variant, how does the self-cleavage read?
A: 0.204

Q: Which self-cleavage does the source give for G1C G19A here?
A: 0.197

Q: Which self-cleavage does the source give for G1C G25U here?
A: 0.211

Q: For G1C G27U, which self-cleavage is on record?
A: 0.142

Q: With G1C G29A as the variant, how does the self-cleavage read?
A: 0.174

Q: With G1C G32C as the variant, how does the self-cleavage read?
A: 0.116

Q: For G1C G34A, which self-cleavage is on record?
A: 0.162

Q: For G1C G34C, which self-cleavage is on record?
A: 0.211

Q: With G1C G54A as the variant, how does the self-cleavage read?
A: 0.141

Q: With G1C G57U as the variant, how does the self-cleavage read?
A: 0.0983

Q: Which self-cleavage does the source give for G1C G68C here?
A: 0.379

Q: For G1C G68U, which self-cleavage is on record?
A: 0.209

Q: With G1C G69C as the variant, how does the self-cleavage read?
A: 0.303

Q: Which self-cleavage does the source give for G1C U2C here?
A: 0.233

Q: With G1C U5C as the variant, how does the self-cleavage read?
A: 0.361

Q: Which self-cleavage does the source give for G1C U8C here?
A: 0.172

Q: With G1C U9A as the variant, how does the self-cleavage read?
A: 0.117

Q: Which self-cleavage does the source give for G1C U9G here?
A: 0.125

Q: Which self-cleavage does the source give for G1C U14G here?
A: 0.101

Q: For G1C U20G, which self-cleavage is on record?
A: 0.0342

Q: Which self-cleavage does the source give for G1C U33A here?
A: 0.0439

Q: For G1C U52G, which self-cleavage is on record?
A: 0.206

Q: For G1C U53G, which self-cleavage is on record?
A: 0.046

Q: With G1C U58A as the variant, how does the self-cleavage read?
A: 0.131

Q: With G1C U60C as the variant, how does the self-cleavage read?
A: 0.314

Q: With G1C U67A as the variant, how does the self-cleavage read?
A: 0.109

Q: Which self-cleavage does the source give for G1C U70A here?
A: 0.208

Q: Which self-cleavage does the source give for G1C U70C here?
A: 0.155

Q: With G1C U70G as the variant, how does the self-cleavage read?
A: 0.166

Q: Which self-cleavage does the source give for G1U A22G here?
A: 0.101

Q: With G1U A22U as the variant, how does the self-cleavage read?
A: 0.119

Q: For G1U A23U, which self-cleavage is on record?
A: 0.11

Q: For G1U A26G, which self-cleavage is on record?
A: 0.314

Q: With G1U A28G as the variant, how does the self-cleavage read?
A: 0.0771

Q: With G1U A30G as the variant, how does the self-cleavage read?
A: 0.105

Q: For G1U A31U, which self-cleavage is on record?
A: 0.0996

Q: For G1U A35U, which self-cleavage is on record?
A: 0.126

Q: For G1U A36U, which self-cleavage is on record?
A: 0.224

Q: With G1U A41C as the variant, how does the self-cleavage read?
A: 0.0514

Q: For G1U A41U, which self-cleavage is on record?
A: 0.0959

Q: With G1U A44G as the variant, how does the self-cleavage read?
A: 0.0639

Q: Which self-cleavage does the source give for G1U A49G here?
A: 0.234

Q: Which self-cleavage does the source give for G1U A59C here?
A: 0.183

Q: For G1U A59U, which self-cleavage is on record?
A: 0.195

Q: For G1U A64G, which self-cleavage is on record?
A: 0.0823

Q: For G1U A71G, which self-cleavage is on record?
A: 0.115

Q: Which self-cleavage does the source give for G1U C4A here?
A: 0.202

Q: With G1U C6A as the variant, how does the self-cleavage read?
A: 0.138

Q: Which self-cleavage does the source give for G1U C6G here?
A: 0.228

Q: Which self-cleavage does the source give for G1U C12G here?
A: 0.171

Q: Which self-cleavage does the source give for G1U C12U here?
A: 0.17

Q: For G1U C16G, which self-cleavage is on record?
A: 0.127

Q: With G1U C16U as the variant, how does the self-cleavage read?
A: 0.0937

Q: For G1U C18U, which self-cleavage is on record?
A: 0.121

Q: Which self-cleavage does the source give for G1U C37A here?
A: 0.158

Q: With G1U C37G as the variant, how does the self-cleavage read?
A: 0.0694

Q: With G1U C37U as the variant, how does the self-cleavage read?
A: 0.0964

Q: With G1U C38G as the variant, how does the self-cleavage read?
A: 0.0981

Q: For G1U C38U, which self-cleavage is on record?
A: 0.127

Q: Which self-cleavage does the source give for G1U C46G here?
A: 0.16

Q: Which self-cleavage does the source give for G1U C46U here?
A: 0.0565

Q: Which self-cleavage does the source give for G1U C48U here?
A: 0.155

Q: With G1U C50A as the variant, how does the self-cleavage read?
A: 0.189

Q: For G1U C65A, which self-cleavage is on record?
A: 0.0897

Q: For G1U C66A, which self-cleavage is on record?
A: 0.242

Q: Which self-cleavage does the source give for G1U C66G here?
A: 0.117

Q: Which self-cleavage does the source give for G1U G15C here?
A: 0.0726

Q: For G1U G15U, which self-cleavage is on record?
A: 0.102

Q: For G1U G27U, which self-cleavage is on record?
A: 0.199

Q: For G1U G29A, which self-cleavage is on record?
A: 0.08

Q: With G1U G29C as the variant, how does the self-cleavage read?
A: 0.109

Q: For G1U G29U, which self-cleavage is on record?
A: 0.154

Q: For G1U G32A, which self-cleavage is on record?
A: 0.146

Q: Which self-cleavage does the source give for G1U G32C here?
A: 0.0843

Q: With G1U G34C as the variant, how does the self-cleavage read?
A: 0.143

Q: With G1U G40A as the variant, how does the self-cleavage read?
A: 0.123

Q: Which self-cleavage does the source give for G1U G40U here?
A: 0.111

Q: For G1U G56C, which self-cleavage is on record?
A: 0.229

Q: For G1U G68A, which self-cleavage is on record?
A: 0.124

Q: For G1U G68C, which self-cleavage is on record?
A: 0.0827

Q: With G1U G68U as the variant, how does the self-cleavage read?
A: 0.051

Q: Which self-cleavage does the source give for G1U G69C here?
A: 0.0943

Q: Which self-cleavage does the source give for G1U G69U here?
A: 0.101

Q: With G1U U2A as the variant, how does the self-cleavage read?
A: 0.11

Q: For G1U U5C, which self-cleavage is on record?
A: 0

Q: With G1U U7C as the variant, how does the self-cleavage read?
A: 0.0995

Q: For G1U U8C, which self-cleavage is on record?
A: 0.118

Q: With G1U U14G as the variant, how does the self-cleavage read?
A: 0.184

Q: With G1U U52A as the variant, how does the self-cleavage read?
A: 0.0595

Q: With G1U U53G as the variant, how does the self-cleavage read?
A: 0.227

Q: With G1U U55C as the variant, how does the self-cleavage read?
A: 0.217

Q: For G1U U58C, which self-cleavage is on record?
A: 0.0791

Q: With G1U U60A as the variant, how does the self-cleavage read?
A: 0.195

Q: With G1U U60C as the variant, how does the self-cleavage read?
A: 0

Q: With G1U U62C as the variant, how does the self-cleavage read?
A: 0.172

Q: Which self-cleavage does the source give for G1U U62G here?
A: 0.163

Q: With G1U U63G as the variant, how does the self-cleavage read?
A: 0.0703

Q: Which self-cleavage does the source give for G1U U67C here?
A: 0.0702

Q: For G1U U67G, which self-cleavage is on record?
A: 0.097

Q: With U2A as the variant, how does the self-cleavage read?
A: 0.259

Q: With U2A A11C as the variant, how does the self-cleavage read?
A: 0.288

Q: For U2A A22C, which self-cleavage is on record?
A: 0.341

Q: Which self-cleavage does the source give for U2A A22G here?
A: 0.175

Q: Which self-cleavage does the source give for U2A A23U here?
A: 0.167

Q: Which self-cleavage does the source give for U2A A26U here?
A: 0.253

Q: With U2A A30G as the variant, how does the self-cleavage read?
A: 0.442

Q: Which self-cleavage does the source give for U2A A31G here?
A: 0.334

Q: For U2A A31U, which self-cleavage is on record?
A: 0.163

Q: With U2A A36C as the variant, how does the self-cleavage read?
A: 0.143

Q: For U2A A39U, which self-cleavage is on record?
A: 0.127

Q: With U2A A41U as the variant, how does the self-cleavage read?
A: 0.54

Q: Which self-cleavage does the source give for U2A A43G here?
A: 0.138

Q: Which self-cleavage does the source give for U2A A45U here?
A: 0.0686

Q: Which self-cleavage does the source give for U2A A47U here?
A: 0.0626

Q: Which self-cleavage does the source give for U2A A49U here?
A: 0.0799

Q: Which self-cleavage does the source give for U2A A59C here?
A: 0.0974

Q: With U2A A59G as the variant, how does the self-cleavage read?
A: 0.156

Q: With U2A A59U as the variant, how does the self-cleavage read?
A: 0.141

Q: With U2A A64G as the variant, how does the self-cleavage read?
A: 0.0976

Q: Which self-cleavage does the source give for U2A C3G here?
A: 0.127

Q: Which self-cleavage does the source give for U2A C4G here?
A: 0.0724

Q: Which self-cleavage does the source give for U2A C16A here?
A: 0.221

Q: With U2A C16U as the variant, how does the self-cleavage read?
A: 0.259
